From patent US9393271B2, “GHRH agonists for islet cell transplantation and function and the treatment of diabetes” (UNIVERSITY OF MIAMI, priority 2012, dated 2016)
Like-named read-outs stand apart in the source and are kept apart here. Values belong to the molecule of their own block, whether it stands above or below them. Non-standard residues stand in square brackets, D forms with d. Residues, ends and D or L forms follow the SMILES beside them. No end group written: not given here. *: point of attachment. Phe(F5) = N[C@@H](Cc1c(F)c(F)c(F)c(F)c1F)C(=O)O; Desaminotyrosyl = O=C(CCc1ccc(O)cc1)*; NMeY = CN[C@@H](Cc1ccc(O)cc1)C(=O)O; Agmatine = N=C(N)NCCCCN*; Nle = CCCC[C@H](N)C(=O)O; Orn = NCCC[C@H](N)C(=O)O; Abu = CC[C@H](N)C(=O)O; GABA = NCCCC(=O)O

How the values were obtained:
[1] = molecular target: T1, GHRH receptor (human pituitary membrane homogenates) (Homo sapiens, UniProt Q02643); assay: GHRH receptor binding, ligand competition with 125I-labeled JV-1-42 (Table 7); parameters: Normal human pituitaries were purchased from the National Hormone and Peptide Program; tissue National Hormone and Peptide Program (A. F. Parlow, Harbor-UCLA Medical Center, Torrance, Calif.); host or cells: normal human pituitary, membrane fraction / homogenate; settings: JI-38 = 1
T1 sequence (Q02643 23-423): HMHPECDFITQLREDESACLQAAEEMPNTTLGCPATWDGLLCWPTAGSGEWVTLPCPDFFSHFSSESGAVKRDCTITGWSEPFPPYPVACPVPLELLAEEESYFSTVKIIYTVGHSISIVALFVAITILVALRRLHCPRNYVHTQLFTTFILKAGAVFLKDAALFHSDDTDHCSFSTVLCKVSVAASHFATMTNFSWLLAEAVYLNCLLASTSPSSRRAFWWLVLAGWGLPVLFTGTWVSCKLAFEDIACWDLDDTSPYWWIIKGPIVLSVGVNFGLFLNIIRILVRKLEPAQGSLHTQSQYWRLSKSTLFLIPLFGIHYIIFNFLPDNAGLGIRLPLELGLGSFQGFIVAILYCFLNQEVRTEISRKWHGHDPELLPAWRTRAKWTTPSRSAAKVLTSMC

INS-1 cells = assay: INS-1 proliferation (BrdU Cell Proliferation Assay); format: cell-based, rat; settings: different concentrations, 24 h, 48 h and 72 h
Description: For determination of proliferation activity, BrdU incorporation was performed in INS-1 cells following exposure to P-27403. Proliferation was measured using BrdU Cell Proliferation Assay (Millipore) following the manufacturer's description. The maximal enhancement in proliferation rate of 16% compared to control was found at 10^−8 M concentration of P-27403 (FIG. 1C).
INS-1 cells were grown for 72 h before experimentation. Cells were treated with GHRH agonists MR356, MR367, and MR403 at different concentrations or with 0.1% (vol/vol) DMSO as control for 24 h, 48 h and 72 h. Proliferation was measured using BrdU Cell Proliferation Assay (Millipore) following the manufacturer's description.

GHRH receptor (rat) [2] = molecular target: T2, GHRH receptor (rat) (rat, UniProt Q02644)
T2 sequence: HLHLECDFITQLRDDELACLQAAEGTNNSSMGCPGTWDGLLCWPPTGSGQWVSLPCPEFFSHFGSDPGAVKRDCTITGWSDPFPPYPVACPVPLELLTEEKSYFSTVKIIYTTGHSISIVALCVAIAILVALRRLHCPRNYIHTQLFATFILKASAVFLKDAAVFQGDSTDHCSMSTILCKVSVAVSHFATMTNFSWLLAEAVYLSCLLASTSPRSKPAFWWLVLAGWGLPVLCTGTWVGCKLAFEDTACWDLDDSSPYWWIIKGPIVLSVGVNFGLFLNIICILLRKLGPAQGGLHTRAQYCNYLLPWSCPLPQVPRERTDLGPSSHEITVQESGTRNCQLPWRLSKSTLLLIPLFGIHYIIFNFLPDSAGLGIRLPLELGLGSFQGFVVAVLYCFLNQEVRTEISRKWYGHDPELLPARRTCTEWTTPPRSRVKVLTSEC

[3] = molecular target: GHRH receptor in human pituitary membrane homogenates (human) (UniProt Q02643); assay: ligand competition, 125I-JV-1-42 displaced, human pituitary membranes
[4] = molecular target: GHRH receptor in human pituitary membrane homogenates (human) (UniProt Q02643); assay: as above; remark: listed apart in the source
[5] = molecular target: GHRH receptor in human pituitary membrane homogenates (human) (UniProt Q02643); assay: ligand competition, [His1,125I-Tyr10,Nle27]hGHRH(1-32)NH2 displaced, human pituitary membranes
[6] = molecular target: T1, GHRH receptor (human pituitary membrane homogenates); assay: GHRH receptor binding, ligand competition with 125I-labeled JV-1-42 (Table 5)
GH level [7] = assay: In vivo endocrine activity (GH release), intravenous administration; settings: rat
Description: In vivo tests on endocrine activity of new GHRH agonists (Intravenous administration). For in vivo tests based on intravenous administration, adult male Sprague-Dawley rats were anesthetized with pentobarbital (6 mg/100/g, b.w.), and GHRH agonists were injected 20 minutes after the injection of pentobarbital. Blood samples were taken from the jugular vein (pretreated level), immediately after hGHRH(1-29)NH2 injection (as a control) or after hGHRH analogs injection. Blood samples were taken from the jugular vein 5, 15 and 30 minutes after the injection. The blood samples were centrifuged, plasma was removed and the GH level was measured by ELISA.

GH level [8] = assay: In vivo endocrine activity (GH release), subcutaneous administration; settings: rat, s.c.
Description: Subcutaneous Administration. Adult male rats were used and anesthetized with pentobarbital (6 mg/100 g, b.w.), by i.p. injection. […] Blood samples were taken from the jugular vein 5, 15 and/or 30 minutes after the injection. The blood samples were centrifuged, plasma was removed and the GH level was measured by ELISA. The results are summarized in terms of potency in Table 9.

GHRH receptor (rat) [9] = molecular target: T2, GHRH receptor (rat); assay: cell-based or functional assay
[10] = molecular target: T3, GHRH receptor in human pituitary membrane homogenates (human, UniProt Q02643); assay: ligand competition, 125I-JV-1-42 displaced, human pituitary membranes
T3 sequence: T1 sequence (Q02643 23-423)

[11] = molecular target: T3, GHRH receptor in human pituitary …; assay: as above; remark: listed apart in the source

Molecule: CCCC[C@H](NC(=O)[C@@H](NC(=O)[C@H](CC(=O)O)NC(=O)[C@H](CCC(N)=O)NC(=O)[C@H](CC(C)C)NC(=O)[C@H](CC(C)C)NC(=O)[C@H](CCCN)NC(=O)[C@H](CCCNC(=N)N)NC(=O)[C@H](C)NC(=O)[C@H](CO)NC(=O)[C@H](CC(C)C)NC(=O)[C@H](CCC(N)=O)NC(=O)[C@H](CC)NC(=O)[C@H](CC(C)C)NC(=O)[C@@H](NC(=O)[C@H](CCCN)NC(=O)[C@H](CCCNC(=N)N)NC(=O)[C@H](Cc1ccc(O)cc1)NC(=O)[C@H](CO)NC(=O)[C@H](CC(N)=O)NC(=O)[C@@H](NC(=O)[C@H](Cc1ccccc1)NC(=O)[C@@H](NC(=O)[C@H](C)NC(=O)[C@H](CC(=O)O)NC(=O)[C@@H](C)NC(=O)[C@H](Cc1ccc(O)cc1)NC)[C@@H](C)CC)[C@@H](C)O)C(C)C)[C@@H](C)CC)C(=O)N[C@@H](CC(=O)O)C(=O)NCCCCNC(=N)N [Peptide P-20367, [N—Me-Tyr^1, D-Ala^2, Orn^12, Abu^15, Orn^21, Nle^27, Asp^28, Agm^29]hGHRH(1-29)] (H-[NMeY][dA]DAIFTNSYR[Orn]VL[Abu]QLSAR[Orn]LLQDI[Nle]D-Agmatine)
Relative affinitiy (Binding potency) vs JI-38 [1]: 2.56 | Cell proliferation compared to control (INS-1 cells): significantly induced cell proliferation

GH release from superfused rat pituitary cells, 1 nM for 3 min, GH by ELISA (peak fraction, average) (GHRH receptor (rat) [2]): 195 ng/mL | IC50 [3]: 4.35 nM | relative affinity (binding potency) vs JI-38 [3]: 1 JI-38 = 1 | IC50 [4]: 1.71 nM | relative affinity (binding potency) vs GHRH (GHRH(1-29) = 1) [4]: 2.4 | IC50 [5]: 1.95 nM | relative affinity (binding potency) vs GHRH (GHRH(1-29) = 1) [5]: 3.03 | relative affinity (binding potency) vs JI-38 [5]: 1 JI-38 = 1
Molecule: JI-38 (peptide)

Relative affinitiy (Binding potency) vs JI-38 [1]: 13.18 | Relative affinitiy (Binding potency) vs GHRH ([6]; GHRH(1-29) = 1): 58.0 | Relative affinitiy (Binding potency) vs JI-38 ([6]; JI-38 = 1): 24.4
Molecule: CCCC[C@H](NC(=O)[C@@H](NC(=O)[C@H](CC(=O)O)NC(=O)[C@H](CCC(N)=O)NC(=O)[C@H](CC(C)C)NC(=O)[C@H](CC(C)C)NC(=O)[C@H](CCCN)NC(=O)[C@H](CCCNC(=N)N)NC(=O)[C@H](C)NC(=O)[C@H](CO)NC(=O)[C@H](CC(C)C)NC(=O)[C@H](CCC(N)=O)NC(=O)[C@H](CC)NC(=O)[C@H](CC(C)C)NC(=O)[C@@H](NC(=O)[C@H](CCCN)NC(=O)[C@H](CCCNC(=N)N)NC(=O)[C@H](Cc1ccc(O)cc1)NC(=O)[C@H](CO)NC(=O)[C@H](CC(N)=O)NC(=O)[C@@H](NC(=O)[C@H](Cc1c(F)c(F)c(F)c(F)c1F)NC(=O)[C@@H](NC(=O)[C@H](C)NC(=O)[C@H](CC(=O)O)NC(=O)[C@@H](C)NC(=O)CCc1ccc(O)cc1)[C@@H](C)CC)[C@@H](C)O)C(C)C)[C@@H](C)CC)C(=O)N[C@@H](CO)C(=O)N[C@@H](CCCNC(=N)N)C(=O)NCCCC(N)=O [Peptide P-25502, [Dat^1, D-Ala^2, Fpa5^6, Orn^12, Abu^15, Orn^21, Nle^27, Gab^30]hGHRH(1-30)NH2] (Desaminotyrosyl-[dA]DAI[Phe(F5)]TNSYR[Orn]VL[Abu]QLSAR[Orn]LLQDI[Nle]SR[GABA]-NH2)
Stimulation of growth hormone levels after i.v. administration (comparison in words) (GH level [7]): most potent | Stimulation of growth hormone levels after s.c. administration (comparison in words) (GH level [8]): stimulated greater growth hormone levels than hGHRH or JI-38

GH-releasing potency in superfused rat pituitary cells relative to JI-38 (GHRH receptor (rat) [9]): ~3 times (vs JI-38) | IC50 [10]: 0.27 nM | relative affinity (binding potency) vs JI-38 [10]: 16.1 JI-38 = 1 | IC50 [11]: 0.01 nM | relative affinity (binding potency) vs GHRH [11]: 406 GHRH(1-29) = 1 | relative affinity (binding potency) vs JI-38 [11]: 171 JI-38 = 1
Molecule: [NMeY]ADAIFTQSYR[Orn]VL[Abu]QLSAR[Orn]LLQDI[Nle]D[Agmatine] [[N-Me-Tyr1, Gln8, Orn12, Abu15, Orn21, Nle27, Asp28, Agm29]hGHRH(1-29)]
